Experimental data taken from US20130004513A1.

Molecular target: Human CD4 on CD4+CD25+ regulatory T cells of healthy donors (human) (UniProt P01730)
Assay: cell-based or functional assay

% Inh2: 7%
% Inh3: 5.2%
Avg. % inhibition: 5.1%
Substance: Negative control (antibody)
